# Test: label from the status in PepcDB records
row,Sequence,protein production
1,MTAPKITQKFNEVETKTTEILNKVLTDDRYFTVTSSFKQDATLGIEYYVTKVTPKTTEAKKSMVQKTFAYDFEKSIDPTSSYFGTTNRETVLSMAKRKRSVVAINASGWRSNGEVMGLQIKDGVLYKDYDAAGYTGAEACVFFDDGTMKVYGNREVDADILISKGARNSFAFGIWLVKDSKPRTAQMTTWADLNVKHPRQAIGQRSDGTLVIITVDGRSLRSSGITAYDMPSLFLSEGCINAFLLDGGGSSQTAVEGKYINNISDGIERAVVDTLTISYPDDDTDSRFFEVQEGRGLATSLNRRVEFIESKPTWNVLDLGFSPDGLIDNTAKFKKALSDLSEKGGGKLHFPKGTYLIGKQNTTSASEKIELPSNVSIVGERRSYTKLLRNPNHSLDELLRITDHNYIEGIEIDGNSSVNKSSCRLIAGGNIKSFKMKDCSLVNATDRGVSIHGIGKSITIEGMYISNIANECINVAEGEIIKLIDSEITFSGTALWVGNAANIFTKNNLAKSLKTFVRYKNSQNAICSGNIITNNIDRAIWGSVREAVFSDNVFKQCHSDYHLYFIQEDTGTNDLIVTGNSVYSDVEGTAFIRTPSDIDRRRVSGNVGNIPSLNLDLEHHHHHH,not failed
2,MPGIDKLPIEETLEDSPQTRSLLGVFEEDATAISNYMNQLYQAMHRIYDAQNELSAATHLTSKLLKEYEKQRFPLGGDDEVMSSTLQQFSKVIDELSSCHAVLSTQLADAMMFPITQFKERDLKEILTLKEVFQIASNDHDAAINRYSRLSKKRENDKVKYEVTEDVYTSRKKQHQTMMHYFCALNTLQYKKKIALLEPLLGYMQAQISFFKMGSENLNEQLEEFLANIGTSVQNV,failed
3,AQGLDGRMLVEAPEEVGAPADVAARLGIEPGALVVHRRRRATIGEDVVQLQDAWYPLEIARAAGLDRPGKVVGGVLGAMTGAGLSPTSTDHDVEVWVPSAQQAAELSLGSRVSVLVVERVTYDATVRVLELTRHTGAADRLTLTYKGLPLRATGAEGSTS,failed
4,MNAVGLVAFATVGSLKAIDADFDVLGVAVLGVLTALGGGATRDVLVGSVPAMLQSTTDVGFALAGVVVAVVVARRVGTEVLAHPVVDVPDAVGLAAFAASGALVGVGADVSPFGVVVLGTTTGVGGGLVSDVLLQRVPFVLTEDLYATCAIAGSTVLWVATASGLGATIAAAAGAGVTLAVRLLAIRFEWALPTVRLNAPA,failed
5,MSIEYKSEAAAVRRFPGSIVVMGVSGSGKSSVGEAIAEACGYPFIEGDALHPPENIRKMSEGIPLTDDDRWPWLAAIGERLASREPVVVSCSALKRSYRDKLRESAPGGLAFVFLHGSESVLAERMHHRTGHFMPSSLLQTQLETLEDPRGEVRTVAVDVAQPLAEIVREALAGLARL,not failed
6,MGDRIAVQAEPTPAKLRGAASGDLVMRKVCMQQWRPTAPRGEYVSTEWSAGYVTDVNYTFGYYGELNPLRCRLPLLTVGRHAPKIENACELGFGQGLSVSIHAAAQPGINWYGTDFNPSQAAFAAEMVRLSGAEAKLYDEAFAEFCNRKDLPDFDFIGLHGIWTWISDQNRHVLVDFIRRKLRPGGVLYISYNTLPGWSSSAPIRHLMKRHADVMGAPGQGVIGQTDAALNFIDQFLALDPLYAKVNPGAVERLKQVKAQDRKYLAHEYMNRDWHPMYFADVENWLGDAKVGFACSAHVLDNLYDLNMTPQQTEFMRDVSDVSLRETIRDFCMNQQFRRDYWVRGVRALIGHEQVAAMREERVVMTVAQADLPTKVRGVIGEATLNDDVYQPLFEILLDHKPHSVLELETHLASKSLHFGQLSSALTILLGLGVITTAAAAQDVSKAKARTLALNKTIARRSLSVGDIAYFASPITGGGITASRFAQLFWLSRQNGGKTAEDWASFAYQVLQGQGQAIIKDGATLQGEDNLTELRAQATHWGAHVLPIWNALGV,failed
7,VTPEQLQHHRFVLESVNGKPVTSDKNPPEISFGEKMMISGSMCNRFSGEGKLSNGELTAKGLAMTRMMCANPQLNELDNTISEMLKEGAQVDLTANQLTLATAKQTLTYKLADLMN,not failed
8,MYIEMAQQQQQSGSDNSMAPVWIVILLFITAYFVWALAHQYIVSFVFTINIWQARLVNLFLNNQLLANQIYLMQTLDPNTVNWDQMVTVMRAVGDYMRYPVICILVVLAFVLYNSNVTLKYRKTYDMKSLRAQEQFNWPAIMPIVKEDLVSQDVNKGPWAMALTPMEFARKYNLLRKDDALLDNPVPGEEMTAGIRRGDAKRVFTMQLGPYWDGFERCSPQAYALSAVFMARMNRDRDAANNILKVLDKTFVDGKPDFSVARPVMKKYQNSELVQEVVAKHAYVLTVIASLLEAAREDGVVPSSEFLWLKPVDRRLWYMLNCVGRQTPYSEVAGPFAHWKAEKEMGRRSLVPMIDEAIRALEIAVKEVRLTPRQMEELEP,failed
9,MTADGRGRIDAAFRGRLGRFVLDASLSVPATGVTAIFGPSGCGKTTIARCIAGLQRLSDGFCAIDGEIWQDGMAFRPAHRRPVGYVFQEPSLFPHLSVRGNLLYGAPKAAATSIGFDEVVELLGLTALLGRSPHRLSGGERQRVAIGRALLSQPRLLLMDEPLAALDRTTKNEILPFLERLHERLSLPVLYISHDMAEIERFADYLVLMERGRVVGAGPLHILQSDPALPLAYSRDAAVSIDGLVEAYDERYGLLTLAVNGGLLHVPSHRIAVGARQRLRIAASDVSIVRARPSESSILNILPARIVTQSPPGAGEVTIVLGLDSDGSGAPILSRISSRSRDLLGLSDGMAVFAQVKGVSLVRASGCAIGNMGPTAPGQLDHCSTQDTGVRSEAGTTAMPIDFAEIDPNRVAAILYRPQDDLDTLLADFAQDLVRAGERIGGIVQRNIKDGSGCQVGMQAIDLMTGREISICQPLGSGAMACKLDAAGLADASVAVASAIAQDVDLIVINKFSKQEAAGRGLRDELAGAIAAGIPVLTAVPEKCFEAWISFTGGIGTTLLCERQVIEAWWRDTSSRMKRMREDHDAVVAQCIEISGALPLVQRVVARQLVVTHDLPLDPERAEAEVVVRGVVERTNVEVLDGAADEADEAPDAGFPVGPERIERLPDIGPVPRRHEALQVEREVLSPDACLQRSAGERVDVFKEGKTKVGTVLVDRGDAELVEGPIVLELHEGAPVLVEMNVGVDLQTLYEIAVRGRVAGAERRCAIGLEAFAQRRPQRDVAFRIGGPKRDVFEPVKRFGTQPGIGKDRPVLCPAVRLDRRPLGDRSVLGPREPDAGAKGRKRQNDPEVAHIAPCQHRRTSPHLASARDALFGPREWISATYPPGNMTNAADRLLDV,failed
10,MIGRHHPILAWAAVVAIGGGVIVLGGIGLPGAGDWLSDWTRAITSRQAGFHRELGQAVRDLAGEGGGAAGVGLLIASLGYGVFHALGPGHGKAVIGAYAATTATGFRRAALLSLAAALIQATTAVVLVDGAFLVMRGGAHWANRTAERWLEPASYAAILGLGLYLGGRGLLAIVRAGRPSPGGDHRPTHPGQARDEEACAHCGHAHGPTADQVAKATEWRSAAMIALAVGIRPCSGAILVLVVANGLGLWAAGILAAYVMALGTAATVALLAVGARASRLPIAGLARRLPLSPALLGGLAGTLAGLILVVLAGLLLRASLLAPVHPLLG,failed
11,MKVEEILEKALELVIPDEEEVRKGREAEEELRRRLDELGVEYVFVGSYARNTWLKGSLEIDVFLLFPEEFSKEELRERGLEIGKAVLDSYEIRYAEHPYVHGVVKGVEVDVVPCYKLKEPKNIKSAVDRTPFHHKWLEGRIKGKENEVRLLKGFLKANGIYGAEYKVRGFSGYLCELLIVFYGSFLETVKNARRWTRRTVIDVAKGEVRKGEEFFVVDPVDEKRNVAANLSLDNLARFVHLCREFMEAPSLGFFKPKHPLEIEPERLRKIVEERGTAVFAVKFRKPDIVDDNLYPQLERASRKIFEFLERENFMPLRSAFKASEEFCYLLFECQIKEISRVFRRMGPQFEDERNVKKFLSRNRAFRPFIENGRWWAFEMRKFTTPEEGVRSYASTHWHTLGKNVGESIREYFEIISGEKLFKEPVTAELCEMMGVKD,not failed
12,MSRSALSFAVFLAVVLSILGGMHAYLWLRLVRDPGLPEPWRRTGTVLLALLAVAIPVGMFSVRLASGWAARWLPVAAFTWLGLAFILFCAVAAIDLARLSAQLALFMGDWLRQVPDPPADPGRRLFVARAVAGGAVIAAGGSAALAFRSATGPAEIHEVAVRLDRLPPALSGLTIAQISDLHVGPAIREREVRRVVEQTNALRPDVVAITGDLVDGSVRELGHAVAELARLRARHGVFFVTGNHEYYSGVDAWVAELQRLGIRVLRNERVTVGDAGASIDLAGVDDWSSGQFGNGHGMNLPRALDGRDPDRSLVLLAHQPRAIGEAVRAGVELQLSGHTHGGQIFPFNLLVRAAYPYVKGLYPHAEGSAHGQIFVSRGTGYWGPPMRLGSPPEIARIVLT,failed
